Measured values as given in the supplement of paper PMC10567573.
± gives the standard deviation.

Assay: protein stability index of a GFP-peptide fusion (GPS, HEK-293T) (PSI 1-6); higher = more stable
[1] = treatment: DMSO, c terminus: a fixed tail appended
[2] = treatment: MLN4924 1 uM, 8 h, c terminus: a fixed tail appended
[3] = treatment: DMSO, c terminus: native
[4] = treatment: MLN4924 1 uM, 8 h, c terminus: native
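Further: 24-mer peptide tiles fused after GFP, lentivirally expressed, FACS-sorted into six equal bins by GFP/DsRed ratio, decoded by Illumina sequencing, PSI is the read-weighted mean bin number.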

| Sequence | protein stability index [1] | protein stability index [2] | protein stability index [3] | protein stability index [4] |
| --- | --- | --- | --- | --- |
| GWGEVMLMADKVLRWERAWFPPAI [ARL6IP1] | 2.87 ± 0.48 | 3.04 ± 0.78 |  |  |
| GYEVAAAQGPNKPGYLVGRNNANG [CPN1] | 4.2 ± 0.14 | 4.32 ± 0.21 |  |  |
| GYPLPKLDMNFSLENREEPWVKEL [ZNF449] | 3.53 ± 0.12 | 3.7 ± 0.2 |  |  |
| HARYRVIHFIAVAVCLLGVGTMVG [SLC35F2] | 2.42 ± 0.42 | 2.28 ± 0.15 |  |  |
| HDGHLYLGSFRSPFLCRLSLQAV [APMAP] |  |  | 2.82 ± 0.33 | 3.31 ± 0.55 |
| HDGKNQPSKTYPAFLEPDETFIVP [SPSB1] | 4.28 ± 0.19 | 4.25 ± 0.39 |  |  |
| HGGSLLGKKYNWSCDDLMGGGGLH [GFOD1] | 2.73 ± 0.28 | 2.95 ± 0.27 |  |  |
| HHWDHARGNPELARLRPGLAVLGA [HAGHL] | 3.1 ± 0.34 | 3.08 ± 0.45 |  |  |
| HICTNYNSVCSKFRKEIKSKSADN [RHOBTB1] | 3.37 ± 0.21 | 3.54 ± 0.15 |  |  |
| HIPSQEVPGTQVGQGGKLWDPSVQ [ZNF263] | 4.35 ± 0.12 | 4.44 ± 0.24 |  |  |
| HISNQKMPTGPPEDRLSLKFLPSS [DRICH1] | 3.21 ± 0.14 | 3.44 ± 0.12 |  |  |
| HISSCKLGPQVSLDPMKNVTCENG [LOXL2] | 4.15 ± 0.39 | 4.14 ± 0.49 |  |  |
| HISTFINELDSGFRLLNLKNDSLR [TSN] | 2.23 ± 0.13 | 2.1 ± 0.25 |  |  |
| HLLIPELGACVAPGGNLIVELARY [DNAAF3] | 2.28 ± 0.085 | 2.25 ± 0.24 |  |  |
| HMNRLQSQRAMLLQGTESLNRATQ [VTI1B] | 4.12 ± 0.12 | 3.895 ± 0.03 |  |  |
| IAANLENKATNTDHLTTVLYLQLA [C8orf76] | 2.36 ± 0.28 | 2.17 ± 0.25 |  |  |
| IARVHGTFGAAACSIGFAVRYLNA [POP5] | 2.22 ± 0.26 | 2.25 ± 0.56 |  |  |
| IDKFGFIVGSQGAEGALEEVPLEV [TBC1D10A] | 4.32 ± 0.16 | 4.42 ± 0.34 |  |  |
| IDSRARRNLGSINTELQDVQRIMV [SEC22B] | 2.8 ± 0.28 | 2.87 ± 0.29 |  |  |
| IEKYLRRQLTKPRPVILDPADPTG [OAS1] | 3.09 ± 0.2 | 3.25 ± 0.24 |  |  |
| IERLRSLSPKIMQEAFLVQEVVEL [TBC1D10A] | 2.08 ± 0.36 | 2.09 ± 0.29 |  |  |
| IETIKIIETEDQIDKKPVSEKTDE [MIA2] | 5.02 ± 0.39 | 4.7 ± 0.94 |  |  |

| Sequence | protein stability index [1] | protein stability index [2] | protein stability index [3] | protein stability index [4] |
| --- | --- | --- | --- | --- |
| IFDDNFIEERKQGLEQFINKVAGH [SNX3] | 3.03 ± 0.39 | 3.32 ± 0.44 |  |  |
| IGDTSVSYKYTSRYVLKAGQTVTI [LMNB1] | 2.49 ± 0.73 | 2.29 ± 0.5 |  |  |
| IGEGMTKYDYLMTLHGVVNESTVC [TENT5D] | 2.53 ± 0.19 | 2.33 ± 0.19 |  |  |
| IGGAAPSLGALDLLGPATGCLLDD [SERTAD1] | 4.28 ± 0.19 | 4.17 ± 0.2 |  |  |
| IIPRTVIDGLDLLKKEHPGARDGI [SMG5] | 3.2 ± 0.31 | 3.39 ± 0.23 |  |  |
| IIPTPDEEEKILRVKLEEDPDGEE [ZNF24] | 5.44 ± 0.4 | 5.52 ± 0.57 |  |  |
| IITQLEDSRRVTKENSHQVKEELS [TRIM63] | 4.28 ± 0.35 | 4.39 ± 0.26 |  |  |
| IKTTLRELLVYIVFLVDICLLTYG [PKD2L1] | 2.98 ± 0.45 | 2.93 ± 0.53 |  |  |
| ILEHAHRGEQTTSQVSWEQDLKLF [FCHSD1] | 3.43 ± 0.44 | 3.53 ± 0.68 |  |  |
| ILHMNGSQSSTYRGTYEQDGRFEK [ZNF396] | 2.86 ± 0.41 | 3.36 ± 0.14 |  |  |
| ILRKLPQQREKLSLIRKHAQTFIA [CCND2] | 2.3 ± 0.14 | 2.42 ± 0.41 |  |  |
| INRVSTCYSEEITVCGDLHGQLDD [PPEF2] | 4.24 ± 0.33 | 3.96 ± 0.27 |  |  |
| INVSKGINHLLKSPFSVHPKTGRI [PRIM1] | 2.62 ± 0.5 | 2.65 ± 0.37 |  |  |
| IRCRHPPPGSHLLYAKMIQKLADL [VDR] | 2.37 ± 0.33 | 2.23 ± 0.13 |  |  |
| IRYQSFNNQSDLEKEMQKMNPYKI [PRIM1] | 3.07 ± 0.13 | 3.26 ± 0.28 |  |  |
| ITPWTPSPSEKNSSFTWSVPSSGY [SMTNL2] | 2.72 ± 0.3 | 2.75 ± 0.34 |  |  |
| IVAVLCYINLLNYMDRFTVAGVLP [SPNS1] | 3.23 ± 0.3 | 3.45 ± 0.14 |  |  |
| IVETVCIVWFSFEFVVRCFACPSQ [KCNA4] | 3.04 ± 0.21 | 2.66 ± 0.18 |  |  |
| IVSQKQMSDRRENDMSPSNNVVPI [RAB11A] | 4.34 ± 0.13 | 4.54 ± 0.14 |  |  |
| IVWFSFEFVVRCFACPSQALFFKN [KCNA4] | 2.91 ± 0.1 | 2.72 ± 0.81 |  |  |
| IYGPGNLSTNNNTLRDHFKGISSH [SLC2A12] | 2.95 ± 0.26 | 3 ± 0.14 |  |  |
| IYRFLKLHPRGKNNFSPLHLAVDK [FEM1C] | 2.31 ± 0.45 | 2.25 ± 0.28 |  |  |

| Sequence | protein stability index [1] | protein stability index [2] | protein stability index [3] | protein stability index [4] |
| --- | --- | --- | --- | --- |
| KAQGHGAKGDNVYEFHLEFLDLVK [HACD3] | 2.37 ± 0.2 | 2.46 ± 0.14 |  |  |
| KDFANTIPGHGGIMDRFDCQYLMA [CDS2] | 2.69 ± 0.37 | 2.8 ± 0.26 |  |  |
| KDRMKSDHKRETERVVREALEKLR [ZMYND11] | 3.18 ± 0.13 | 3.58 ± 0.32 |  |  |
| KEAAEAIEAEGATAPLTELLHSRN [CTNNB1] | 5.38 ± 0.28 | 5.28 ± 0.11 |  |  |
| KELEDMNQKLFDLRGKFKRPPLRR [TNNI2] | 3.86 ± 0.19 | 4.1 ± 0.42 |  |  |
| KFQLNKYTGEIKISENLDYEETGF [PCDHGA10] | 2.6 ± 0.099 | 3.63 ± 0.36 |  |  |
| KGFGFVTMTNYDEAAMAIASLNGY [ELAVL3] | 2.34 ± 0.13 | 2.37 ± 0.1 |  |  |
| KGTFSDVTFKLDDGAISAHKPLLI [RHOBTB1] | 2.47 ± 0.32 | 2.55 ± 0.33 |  |  |
| KGVNRKLGRTGLYPSYKVREKIET [FUT8] | 3.2 ± 0.31 | 3.4 ± 0.22 |  |  |
| KHAVVNLINYQDDAELATRAIPEL [CTNNB1] | 3.66 ± 0.23 | 3.64 ± 0.38 |  |  |
| KIDLENTLEQEQEALVNRLWKRMD [CCDC6] | 3.23 ± 0.41 | 3.78 ± 0.39 |  |  |
| KILPWSPEKIGTRFLLYTNENPNN [PNLIPRP1] | 2.56 ± 0.28 | 2.89 ± 0.28 |  |  |
| KKEMNKSDLNTNNLLFKPPVESHI [KMT2E] | 3.47 ± 0.39 | 4.12 ± 0.26 |  |  |
| KKFELVPSPPTSPPWGLGPGAGDP [MYCL] | 4.1 ± 0.28 | 4.07 ± 0.21 |  |  |
| KKIYCRICMAQIAYSGNTSNLSYH [ZBED1] | 2.19 ± 0.28 | 2.13 ± 0.3 |  |  |
| KKRRMGTYSLVPKKKTKVLKQRTV [EHMT1] | 3.27 ± 0.22 | 3.82 ± 0.4 |  |  |
| KLHKSQLSQALNGLSDRAKEAKEF [TRIM9] | 4.11 ± 0.15 | 4.17 ± 0.22 |  |  |
| KLIKCDEIQVDSEEPVFEAVINWV [KLHL12] | 2.15 ± 0.26 | 2.4 ± 0.36 |  |  |
| KLLDELPIAKVMKDYLKHKFDDI [ASB7] |  |  | 2.37 ± 0.28 | 2.66 ± 0.38 |
| KLLNITADPMDWSPSNVQKWLLWT [SPDEF] | 2.34 ± 0.46 | 2.22 ± 0.21 |  |  |
| KLLSVIVWMLMLLLAVPNIILTNQ [P2RY14] | 2.79 ± 0.47 | 3.21 ± 0.41 |  |  |
